B1: IRF9 (protein, UniProt Q00978 1-393, looked up)
Interferon regulatory factor 9: MASGRARCTRKLRNWVVEQVESGQFPGVCWDDTAKTMFRIPWKHAGKQDFREDQDAAFFKAWAIFKGKYKEGDTGGPAVWKTRLRCALNKSSEFKEVPERGRMDVAEPYKVYQLLPPGIVSGQPGTQKVPSKRQHSSVSSERKEEEDAMQNCTLSPSVLQDSLNNEEEGASGGAVHSDIGSSSSSSSPEPQEVTDTTEAPFQGDQRSLEFLLPPEPDYSLLLTFIYNGRVVGEAQVQSLDCRLVAEPSGSESSMEQVLFPKPGPLEPTQRLLSQLERGILVASNPRGLFVQRLCPIPISWNAPQAPPGPGPHLLPSNECVELFRTAYFCRDLVRYFQGLGPPPKFQVTLNFWEESHGSSHTPQNLITVKMEQAFARYLLEQTPEQQAAILSLV
B2: TACSTD2 (protein, UniProt P09758 27-323, looked up)
Tumor-associated calcium …: HTAAQDNCTCPTNKMTVCSPDGPGGRCQCRALGSGMAVDCSTLTSKCLLLKARMSAPKNARTLVRPSEHALVDNDGLYDPDCDPEGRFKARQCNQTSVCWCVNSVGVRRTDKGDLSLRCDELVRTHHILIDLRHRPTAGAFNHSDLDAELRRLFRERYRLHPKFVAAVHYEQPTIQIELRQNTSQKAAGDVDIGDAAYYFERDIKGESLFQGRGGLDLRVRGEPLQVERTLIYYLDEIPPKFSMKRLTAGLIAVIVVVVVALVAGMAVLVITNRRKSGKYKKVEIKELGELRKEPSL
B3: GPNMB (protein, UniProt Q14956 23-572, looked up)
Transmembrane glycoprotein NMB: KRFHDVLGNERPSAYMREHNQLNGWSSDENDWNEKLYPVWKRGDMRWKNSWKGGRVQAVLTSDSPALVGSNITFAVNLIFPRCQKEDANGNIVYEKNCRNEAGLSADPYVYNWTAWSEDSDGENGTGQSHHNVFPDGKPFPHHPGWRRWNFIYVFHTLGQYFQKLGRCSVRVSVNTANVTLGPQLMEVTVYRRHGRAYVPIAQVKDVYVVTDQIPVFVTMFQKNDRNSSDETFLKDLPIMFDVLIHDPSHFLNYSTINYKWSFGDNTGLFVSTNHTVNHTYVLNGTFSLNLTVKAAAPGPCPPPPPPPRPSKPTPSLATTLKSYDSNTPGPAGDNPLELSRIPDENCQINRYGHFQATITIVEGILEVNIIQMTDVLMPVPWPESSLIDFVVTCQGSIPTEVCTIISDPTCEITQNTVCSPVDVDEMCLLTVRRTFNGSGTYCVNLTLGDDTSLALTSTLISVPDRDPASPLRMANSALISVGCLAIFVTVISLLVYKKHKEYNPIENSPGNVVRSKGLSVFLNRAKAVFFPGNQEKDPLLKNQEFKGVS
B4: CD93 (protein, UniProt Q9NPY3 22-652, looked up)
Complement component C1q …: TGADTEAVVCVGTACYTAHSGKLSAAEAQNHCNQNGGNLATVKSKEEAQHVQRVLAQLLRREAALTARMSKFWIGLQREKGKCLDPSLPLKGFSWVGGGEDTPYSNWHKELRNSCISKRCVSLLLDLSQPLLPSRLPKWSEGPCGSPGSPGSNIEGFVCKFSFKGMCRPLALGGPGQVTYTTPFQTTSSSLEAVPFASAANVACGEGDKDETQSHYFLCKEKAPDVFDWGSSGPLCVSPKYGCNFNNGGCHQDCFEGGDGSFLCGCRPGFRLLDDLVTCASRNPCSSSPCRGGATCVLGPHGKNYTCRCPQGYQLDSSQLDCVDVDECQDSPCAQECVNTPGGFRCECWVGYEPGGPGEGACQDVDECALGRSPCAQGCTNTDGSFHCSCEEGYVLAGEDGTQCQDVDECVGPGGPLCDSLCFNTQGSFHCGCLPGWVLAPNGVSCTMGPVSLGPPSGPPDEEDKGEKEGSTVPRAATASPTRGPEGTPKATPTTSRPSLSSDAPITSAPLKMLAPSGSPGVWREPSIHHATAASGPQEPAGGDSSVATQNNDGTDGQKLLLFYILGTVVAILLLLALALGLLVYRKRRAKREEKKEKKPQNAADSYSWVPERAESRAMENQYSPTPGTDC
B5: FCGR2A (protein, UniProt P12318 34-317, looked up)
Low affinity immunoglobulin …: QAAAPPKAVLKLEPPWINVLQEDSVTLTCQGARSPESDSIQWFHNGNLIPTHTQPSYRFKANNNDSGEYTCQTGQTSLSDPVHLTVLSEWLVLQTPHLEFQEGETIMLRCHSWKDKPLVKVTFFQNGKSQKFSHLDPTFSIPQANHSHSGDYHCTGNIGYTLFSSKPVTITVQVPSMGSSSPMGIIVAVVIATAVAAIVAAVVALIYCRKKRISANSTDPVKAAQFEPPGRQMIAIRKRQLEETNNDYETADGGYMTLNPRAPTDDDKNIYLTLPPNDHVNSNN
B6: APLP1 (protein, UniProt P51693 39-650, looked up)
Amyloid beta precursor like …: SLAGGSPGAAEAPGSAQVAGLCGRLTLHRDLRTGRWEPDPQRSRRCLRDPQRVLEYCRQMYPELQIARVEQATQAIPMERWCGGSRSGSCAHPHHQVVPFRCLPGEFVSEALLVPEGCRFLHQERMDQCESSTRRHQEAQEACSSQGLILHGSGMLLPCGSDRFRGVEYVCCPPPGTPDPSGTAVGDPSTRSWPPGSRVEGAEDEEEEESFPQPVDDYFVEPPQAEEEEETVPPPSSHTLAVVGKVTPTPRPTDGVDIYFGMPGEISEHEGFLRAKMDLEERRMRQINEVMREWAMADNQSKNLPKADRQALNEHFQSILQTLEEQVSGERQRLVETHATRVIALINDQRRAALEGFLAALQADPPQAERVLLALRRYLRAEQKEQRHTLRHYQHVAAVDPEKAQQMRFQVHTHLQVIEERVNQSLGLLDQNPHLAQELRPQIQELLHSEHLGPSELEAPAPGGSSEDKGGLQPPDSKDDTPMTLPKGSTEQDAASPEKEKMNPLEQYERKVNASVPRGFPFHSSEIQRDELAPAGTGVSREAVSGLLIMGAGGGSLIVLSMLLLRRKKPYGAISHGVVEVDPMLTLEEQQLRELQRHGYENPTYRFLEERP
B7: CD84 (protein, UniProt Q9UIB8 22-345, looked up)
SLAM family member 5: KDSEIFTVNGILGESVTFPVNIQEPRQVKIIAWTSKTSVAYVTPGDSETAPVVTVTHRNYYERIHALGPNYNLVISDLRMEDAGDYKADINTQADPYTTTKRYNLQIYRRLGKPKITQSLMASVNSTCNVTLTCSVEKEEKNVTYNWSPLGEEGNVLQIFQTPEDQELTYTCTAQNPVSNNSDSISARQLCADIAMGFRTHHTGLLSVLAMFFLLVLILSSVFLFRLFKRRQGRIFPEGSCLNTFTKNPYAASKKTIYTYIMASRNTQPAESRIYDEILQSKVLPSKEEPVNTVYSEVQFADKMGKASTQDSKPPGTSSYEIVI
B8: GT (protein, UniProt P51161 2-128, looked up)
Gastrotropin: AFTGKFEMESEKNYDEFMKLLGISSDVIEKARNFKIVTEVQQDGQDFTWSQHYSGGHTMTNKFTVGKESNIQTMGGKTFKATVQMEGGKLVVNFPNYHQTSEIVGDKLVEVSTIGGVTYERVSKRLA
B9: ITGB5 (protein, UniProt P18084 24-799, looked up)
Integrin beta-5: GLNICTSGSATSCEECLLIHPKCAWCSKEDFGSPRSITSRCDLRANLVKNGCGGEIESPASSFHVLRSLPLSSKGSGSAGWDVIQMTPQEIAVNLRPGDKTTFQLQVRQVEDYPVDLYYLMDLSLSMKDDLDNIRSLGTKLAEEMRKLTSNFRLGFGSFVDKDISPFSYTAPRYQTNPCIGYKLFPNCVPSFGFRHLLPLTDRVDSFNEEVRKQRVSRNRDAPEGGFDAVLQAAVCKEKIGWRKDALHLLVFTTDDVPHIALDGKLGGLVQPHDGQCHLNEANEYTASNQMDYPSLALLGEKLAENNINLIFAVTKNHYMLYKNFTALIPGTTVEILDGDSKNIIQLIINAYNSIRSKVELSVWDQPEDLNLFFTATCQDGVSYPGQRKCEGLKIGDTASFEVSLEARSCPSRHTEHVFALRPVGFRDSLEVGVTYNCTCGCSVGLEPNSARCNGSGTYVCGLCECSPGYLGTRCECQDGENQSVYQNLCREAEGKPLCSGRGDCSCNQCSCFESEFGKIYGPFCECDNFSCARNKGVLCSGHGECHCGECKCHAGYIGDNCNCSTDISTCRGRDGQICSERGHCLCGQCQCTEPGAFGEMCEKCPTCPDACSTKRDCVECLLLHSGKPDNQTCHSLCRDEVITWVDTIVKDDQEAVLCFYKTAKDCVMMFTYVELPSGKSNLTVLREPECGNTPNAMTILLAVVGSILLVGLALLAIWKLLVTIHDRREFAKFQSERSRARYEMASNPLYRKPISTHTVDFTFNKFNKSYNGTVD

Each molecule was assayed on plasma proteins (assay: Plasma proteins modulated between baseline and day 28 in responders (CR, VGPR, PR; n = 19), Example 6 (Table 13)). Conditions: plasma protein (OLINK NPX); responders (CR, VGPR, PR; n = 19); itacitinib 200 mg or 300 mg QD with corticosteroids; day 28 vs baseline.
Type: in vivo, human
How it was run: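 Longitudinal comparison, day 28 versus baseline, with steroid-naive (N=10) and steroid-refractory (N=18) patients combined. Proteins measured by OLINK proximity extension, log2 normalized protein expression. Differences tested by t tests, ANOVA, Pearson correlation, P<0.05 significant.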

Molecule | Fold Change, Decreased Expression from Baseline to Day 28 | Fold Change, Increased Expression from Baseline to Day 28
B1 | −1.4384 | 
B2 |  | 1.1931
B3 |  | 1.2117
B4 | −1.3029 | 
B5 | −1.5278 | 
B6 |  | 1.4933
B7 | −1.7208 | 
B8 |  | 1.8699
B9 |  | 1.229

From patent publication US12099068B2, “Biomarkers for graft-versus-host disease” (Incyte Corporation, priority 2018, dated 2024)
